The nanobody polyreactivity screen of Harvey et al. (2022)

Assay: yeast display, Sf9 membrane polyspecificity reagent, FACS + sequencing; frameworks hold sequencing errors
Outline: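 Nanobodies came from a synthetic yeast display library in Saccharomyces cerevisiae BJ5465, induced with galactose for 36–48 hours and stained for 1 hour at 4 °C with 10% biotinylated, detergent-solubilized Sf9 membrane reagent. Cells were enriched on streptavidin microbeads and then FACS-sorted, with low and high (top ~1%) gates set on anti-HA fluorescence for expression and streptavidin fluorescence for reagent binding. Each polyreactivity label reflects the gate a clone came from. Genes were amplified by colony PCR, sequenced by MiSeq 2 × 250 and filtered by CDR length.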

Row | Sequence | polyreactivity (PSR sort gate)
1 | QVQLVESGGGLVQAGGSLRLSCAASGRTFSYYARGWYRQAPGKERELVAAISSGGSTNYADSVKGRFTISRDNAKNTVYFQMNSLKPEDTAVYYCAALWSGYKFNYWGQGTQVTVSS | low polyreactivity
2 | QVQLVESGGGLVQAGGSLRLSCAASGSTLHYNAMGWYRQAPGKERELVARISWSGGSTYYADSVKGRFTISRDTAKNTVYLQMNSLKPEDTAVYYCAAPRYGHYTWLYDYWGQGTQVTVSS | low polyreactivity
3 | QVQLVESGGGLVQAGGSLRLSCAASGYTFVNYAMGWYRQAPGKERELVAAITSRGSSTYYADSVKGRFTISRDNAKNTVYLQMKSLKPEDTAVYYCFVHVRNHDYWGQGTQVTVSS | high polyreactivity
4 | QVKLVESGGGLVQAGGSLRLSCDASGSTFIANTMGWYRQAPGKERELVAAITDSGGSTYYADSVKGRFTISRDNAKNTVYLQMNSLKPEDTAVYYCNADYVYVFIRAWSYDYWGQGTQVTVSS | low polyreactivity
5 | QVQLVESGGGLVQAGGSLRLSCAASGRTFKYYAMGWYRQAPGKERELVAAISLSSGRTYYADSVKGRFTISRDIAKNTVYLQMNSLKPEDTAVYYCARVTTGGYEYWGQGTQVTVSS | high polyreactivity
6 | QVQLVESGGGLVQAGGSLRLSCAASGYTFIDNAMGWYRQAPGRERELVAAISDSAGDTYYADSVKGRFTISRDNAKNTVYLQMNSLKPEDTSVYYCAARGYLRGEQLYVFIRYDYWGHGTQVTVSS | low polyreactivity
7 | QVQLVESGGGLVQAGGSLRLSCAASGSIFRPYAMGWYRQAPGKERELVAAITSGGRTNYADSVKGRFTISRDNAKNTVYLQMNSLKPEDTAVYYCAKTGSYAKIRPNNDYWGQGTQVTVSS | low polyreactivity
8 | QVQLVESGGGLVQAGGSLRLSCAASGRTLDSNAMGWYRQAPGKERDLVATISKRGGNTYYADSVKGRFTISRDNAKNTVYLQMNSLKPEDTAVYYCAKDVPPEYPTSSYDYWGQGTQVTVSS | low polyreactivity
9 | QVQLVESGGGLVQAGGSLRLSCAASGSTFSYYTMGWYRQAPGKERELVAAISKSGGITYYADSVKGRFTISRDNAKNTVYLQMNSLKPEDTAVYYCAADGGYYDDDYWGQGTQVTVSS | high polyreactivity
10 | QVQLVESGGGLVQAGGSLRLSCAASGSTFIFYTLGWYRQAPGKERELVAAITSNGGSTYYADSVKGRFTISRDTAKKTVYLQMNSLKPEDTAVDYCAKKGVGQYDWGQGTQVTVSS | high polyreactivity
11 | QVQLVESGGGLVQAGGSLRLSCAASGFIFRNYAMGWYRQAPGKERELVAAITGRGTYTYYADSVKGRFTISRDNAKNTVYLQMNSLKPEDTAVYYCAARSLALVYRKYDYWGQGTQVTVSS | high polyreactivity
12 | QDQLVESGGGLVQAGGSLRLSCAASGRTFRRNAMGWYRPAPGKERELVAAITSSGGSTYYADSVKGRFTISRDNAKNTVYLQMNSLKPEDTAVYYCNAVGKPQSSQYYYWGQGTQVTVSS | high polyreactivity
13 | QVQLVESGGGLLQAGGSLRLSCAASGGTFTWYAMGWYRQAPGKERELVAAISSDGSTYYADSVKGRFTISRDNAKNTVYLQMNSLKPEDTAVYYCAAYSSWGGFDYWGQGTQVTVSS | low polyreactivity
14 | QVQLVESGGGLVQSGGSLRLSSASSGRTFSGYVMGWYRQAPGKEREFVAVISRGGSTYYADSVKGRFTISRDNAKNTVYLQMNSLKPEDTAVYYCAGRLTYTGGQGAYDYWGQGTQVTVSS | high polyreactivity
15 | QVQLVESGGGLVQAGGSLRLSCAASGSIFPYAMGWYRQSPGKQRQLVAVISWSGASTYYADSVKGRFTISRDNAKNTVDLQMNSLKPEDTAVYYCAVYRYYKLVHLYGYDYWGQGTQVTVSS | high polyreactivity
16 | QVQLVESGGGLVQAGGSLRLSCDASGLIFYYYAMGWYRQAPGKERELVAAIRWSGGSTYYADSVKGRFTISRDNAKNTVYLQMNSLKPEDTAVYYCSEFYYWGQGTQVTVSS | high polyreactivity
17 | QVQLVESGGGLVQAGGSLRLSCAASGLIFYRYAMGWYRQAPGKERELVAVITRSGGNTNYADSVKGRFTISRDNAKNTVYLQMNSLKPEDTAVYYCATRGIWKKVPYYYWGQGTQVTVSS | high polyreactivity
18 | QVQLVESGGGLVQAGGSLRLSCAASGSIFRRNAMGWYRQAPGKERELVAAINSGGTTYYADSVKGRFTNSRDNAKNTVYLQMNSLKPEVTAVYYCATVYRGWYYYWGQGTQVTVSS | high polyreactivity
19 | QVQLEESGGGLVQAGGSLRLSCAASGSTFFLYAMGWYRQAPGKERELVAAITYTDGDTYYADSVKGRFTISRDNAKNTVYLQMNSLKPEDTAVYYCNAGGDEPVYGSGYDYWGQGTQVTVSS | low polyreactivity
20 | QVQLVESGGGLFQAGGSLRLSCAASGFIFLLNAMGWYRQAPGKERELVAAINSDGSTNYADSVKGRFTISRDNAKNTFYLQMNSLKPEDTGVYYCAARSFTLRGYDYWGQGTQVTVSS | low polyreactivity
21 | QVQLVESGGGLVQAGGSLRLSCAASGRTFYGNAMGWYRQAPGKERELVASITRRGGITYYADSVKGRFTISRDNAKNTVYLQMNSLKPEDTAVYYCAKAQLGPWSFEYWGQGTQVTVSS | high polyreactivity
22 | QVHLVESGGGLVQAGGSLRLSCAASGSTLGYYAMGWYRQAPGKERELVASIRWDTASTYYADSVKGRFTISRDNAKNTVYLQMNSLKPEDTAVYYCNAGRPRFYRCRWYYYGYGYWGQGTQVTVSS | high polyreactivity

Row | Sequence | polyreactivity (PSR sort gate)
23 | QVQLVESGGGLVQAGGSLRLSCAASGRTLPIYAMGWYRQAPGKERELVAAISWSGASTYADSVKGRFTISRDNAKYTVYLQMNSLKPEDTAVYYCAAYYESWYSSYGYGYWGQGTQVTVSS | low polyreactivity
24 | QVQLVESGGGLVQAGGSLRLSCAASGRTFSSNAMGWYRQDPGKERELVASISFRGGRTYYADSVKGRFTISRDNAKNTVYLQMNSLKPEVTAVYYCVSGTKRTGYGYWGQGTQVTVSS | high polyreactivity
25 | QVQLVESGGGLVQAGGSLRLSCSASGRIFSVYAMGWYRQAPGKERELVAAITWRGGSTYYADSVKGRFTISRDNAKNTVYLQMNSLKPEDTAVYYCAAVESGYGSKRFYYWGQGTQVTVSS | high polyreactivity
26 | QVQLVESGGGLVQAGGSLRLSGAASGFIFGYYAMGWYRQAPGKERELVAAITSRGGSTYYADSVKGRFTISRDNAKNTVYLQMNSLKPEDTAVYYCAAGYNGYGLQYYYWGQGTQVTVSS | high polyreactivity
27 | QVQLEESGGGLVQAGGSLRLSCAASGSIFVYYRMGWYRQAPGKERELVAAISSGGSTHYADSVKGRFTISRDNAKNTVYLQMNSLKPEDTAFYYRNDRAYGNGMGTGYFGKHRYDYWGQGTQVTVSS | low polyreactivity
28 | QVQLVESGGGLVQAGGSLRLSCAASGSTFALNAMGWYRQAPGKERELVAAIDDSGITYYADSVKGRFTISRDNAKNTVYLQMNSLKPDDTAVYYCAKKEWKSRTHAKGDQYPDDYWGQGTQVTVSS | low polyreactivity
29 | QVQLVESGGGLVQAGGSLRLSCAASGRIFTVYAMGWYRQAPGKERELVAAISGRGGRTYYADSVKGRFTISRDNAKNTVYLQMNSLKPEDTAGYYCNADTLTLSRPDGDIHTVWMDYWGQGTQVTVSS | low polyreactivity
30 | QVLLVESRGGLVQAGGSLRLSCAASGSIFFYYAMGWYRQAPGKETELVASISWSGGSTYYADSVKGRFTISRDNAKNTVYLQMNSLKPEDTAVYFCAKVTITFSWETLYDYWGQGTQVTVSS | low polyreactivity
31 | QVQRVESGGGVVQAGGSLRLSCAASGSTFQLYAMGWYRQAPGKERELVAGISRDGSTYYADSVKGRFTISRDNAKNTVYLQMNSLKPEDTAVYYCAAKYYGNKRDLYYWGQGTQVTVSS | low polyreactivity
32 | QVQLVESGGGLVQAGGSLRLSCAASGSTSRLYAMGWYSQAPGKERELVAAIRYSSGTTYYADSVTVRFTISRDNAKNTVYLQMNSLKPEDTAVYYCAAVTIRRYGPAEYNYWGQGTQVTVSS | high polyreactivity
33 | QVQLVESGGGLVQAGGSLRLSCAASGGIFDRYAMGWSRQAPGKERELVAVISGSVNTYADSVKGRFTISRDNAKNTFYLQMNSLKPEDTAVYYCATQFEGTSGFNYWGQGTQVTVSS | low polyreactivity
34 | QVQLVESGGGLVQAGGSLRLSCAASGILFYLNAMGWYRQAPGKERELVASISTGGGTNYADSVKGRFTISRDYAKNTVYLQMNSLKPEDTAFYYCAAKRRNTYTLYYYWGQGTQVTVSS | high polyreactivity
35 | QVQLVESGGGLVQAGGSLRLSCAASGGIFWSYAMGWYRQAPGKERELVAAISSGTYYADSVKGRFTISRDNAKNTVYLQMNSLIPEDTAVYYWNVQTYNVAWFYRYDMNYWGQGPQVTVSS | low polyreactivity
36 | QVQLVESGGGLVQAGGSLRLSCAATGITFEGYAMGWYRQAPGKERELVAAIRSSGTSTYYADSVKGRFTISRDNAKNTVYLQMNSLKPEDTAVYYCNRARSSSRYDYCGQGTQVTVSS | low polyreactivity
37 | QDQLVESGGGLVQAGGSLRLSCAASGRTFRWNAMGWYRQAPGKERELVAAITKSGGSTYYADSVKGRFTISRDNAKNTVYLQMNSLKPEDTAVYYCAAPRYSTFTYDYWGQGTQVTVSS | low polyreactivity
38 | QVHLVESGGGLVQAGGSLRLSCAASGLTFGRNAMGWYRQAPGKERELVAVISRSGGSTYYADSVKGRFTISRDNAQNTVYLQMNSLKPEDTAVYYCAAGAYSYRKYRSYDYWGQGTQVNVSS | high polyreactivity
39 | QVQLVESGGVLVQAGGSLRLSCAASGRTFIFYAMGWYRQAPRKERELVAAITYSGTSTYYADSVKGRFTISRDNAKNTVYLQMNSLKPEDTAVYYCAKDGQRDANYYWGQGTQVTVSS | low polyreactivity
40 | QVQLVESGGGLVQAGGSLRLSCAASGSTFQYYAMGWYRPAPGKERELVAAISSGGSTYYADSVMGRFTISRDNAKNTVYLQMNSLKPEDNAVYYCAAYDYDGVYGYCGQGTQVTVSS | high polyreactivity
41 | QVQLVESGGGLVQAGGSLRLSCAASGSIFFENDMGWYRQAPGKEREFVAAISLSSASTYYADSVKGRFTISRDNAKNTVYLQMNSLKPEDTAVYYCAADAIFGWPTFDYWGQGTQVTVSS | low polyreactivity
42 | QVQLVESGGGLVQAGGSLRLSCAASGFTFDYYFMGWYRQAPGKERELVAAISLRSGRTYYADSVKGRFTISRDNAKNTVYLQMKSLKPEDTAVYYCAAESRGVGAYYYWGQGTQVTVSS | high polyreactivity
43 | QVQLVESGGGLVQAGGSLRLSSAASGSTFIGNAMGWYRQAPGTARELVAAITRSGGSTFYADSVKGRFTISRDNAKNTVYLQMNSLKPDDTAVYYCASKGNPYRVPCSSYPKVNYWGQGTQVTVSS | high polyreactivity
